This note sets out measurements from patent publication US20190284246A1.

One may read the Kd as the free concentration of one partner at which half of the binding sites on the other are occupied at equilibrium, for simple one-to-one binding. The low end stands for a tighter complex, the high end for a looser complex.

In test [1] the target is ΔN28-CofB (enterotoxigenic Escherichia coli (ETEC)). Briefly: ITC, peptide titrated into ΔN28-CofB. (Isothermal titration calorimetry measures the heat released or taken up as one component is titrated into another.)
The target is the same in test [2]. Briefly: ITC, CofJ titrated into ΔN28-CofB, 25° C.
For test [3] the target is unchanged. Description: ITC.

CofJ^1-24 peptide had a Kd in test [1] of 4000 nM.
For the substance secretory protein CofJ, the Kd in test [2] was 200 nM.
“CofJ^4-16-GCN4 inhibitory peptide (designed binder)” came in with a Kd in test [1] of 80 nM. Moreover, the fold stronger binding affinity than CofJ to ΔN28-CofB in test [3] stood at 2.5 fold.
CofJ^4-16 peptide gave a Kd in test [1] of 4000 nM.
With “CofJ^1-24-GCN4 inhibitory peptide (designed binder)”, the Kd in test [1] was determined as 40 nM. The fold stronger binding affinity than CofJ to ΔN28-CofB in test [3] was 5 fold.
